Source: the supplement of paper PMC7877785
± gives the uncertainty stated by the source.

Assay: self-splicing fitness, log relative to wild type (ln ratio); higher = more splicing; Tetrahymena group I intron in knt gene, E. coli kanamycin selection, DiMSum; sequences stand for … in CUCUCU…GGAGGGAAAAGUUAUCAGGCAUGCACCUGGUAGCUAGUCUUUAAACCAAUAGAUUGCAUCGGUUUAAAAGGCAAGACCGUCAAAUUGCGGGAAAGGGGUCAACAGCCGUUCAGUACCAAGUCUCAGGGGAAACUUUGAGAUGGCCUUGCAAAGGGUAUGGUAAUAAGCUGACGGACAUGGUCCUAACCACGCAGCCAAGUCCUAAGUCAACAGAUCUUCUGUUGAUAUGGAUGCAGUUCACAGACUAAAUGUCGGUCGGGGAAGAUGUAUUCUUCUCAUAAGAUAUAGUCGGACCUCUCCUUAAUGGGAGCUAGCGGAUGAAGUGAUGCAACACUGGAGCCGCUGGGAACUAAUUUGUAUGCGAAAGUAUAUUGAUUAGUUUUGGAGUACUCGUGGUCG
How it was run: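 Six replicate transformations of E. coli BL21(DE3) with a pET-22b(+) library were grown overnight at 37°C or 30°C. The library randomised all eight P1ex-region intron nucleotides, the intron lying in the knt kanamycin-resistance gene, and plates were LB agar with or without 25 μg/mL kanamycin plus 100 μg/mL carbenicillin, 50 μM IPTG and 0.2% rhamnose. Pooled colonies were amplicon-sequenced on an Illumina HiSeq 2500, and fitness is the DiMSum error-weighted combination of wild-type-normalised replicate fold changes, kanamycin versus none.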

Sequence | self-splicing fitness (ln) (30 °C) | self-splicing fitness (ln) (37 °C)
GUCCAGCAAUAUUACGUGGU | -1.61 ± 0.059 | -1.03 ± 0.064
AUGCAGCAAUAUUACGCCUC | -2.55 ± 0.2 | -1.35 ± 0.14
CAACAGCAAUAUUACGCGGG | -2.63 ± 0.14 | -2.12 ± 0.14
GCGUAGCAAUAUUACGAAUA | -0.7 ± 0.12 | -1.13 ± 0.11
GUAGAGCAAUAUUACGAUGA | -1.5 ± 0.1 | -0.479 ± 0.12
GUACAGCAAUAUUACGAAAC | -1.74 ± 0.1 | -0.531 ± 0.12
GGGAAGCAAUAUUACGUUCG | -0.436 ± 0.11 | 0.00472 ± 0.17
AUUGAGCAAUAUUACGCGGA | -4.15 ± 0.35 | -2.2 ± 0.14
GGUAAGCAAUAUUACGAGGG | -2.38 ± 0.14 | -2.98 ± 0.24
AACCAGCAAUAUUACGAGUG | -0.0963 ± 0.045 | -0.0773 ± 0.06
GCGAAGCAAUAUUACGCGGU | -2.84 ± 0.29 | -1.65 ± 0.32
GCACAGCAAUAUUACGGAUA | -2.49 ± 0.17 | -1.38 ± 0.12
UCUGAGCAAUAUUACGUUCU | -3.98 ± 0.3 | -2.89 ± 0.31
GCAUAGCAAUAUUACGUAGG | -2.32 ± 0.11 | -1.31 ± 0.13
AAACAGCAAUAUUACGACGU | -0.232 ± 0.045 | 0.39 ± 0.052
UAGUAGCAAUAUUACGCGAA | – | -2.45 ± 0.41
UCUUAGCAAUAUUACGGAAG | – | -1.81 ± 0.41
GCUGAGCAAUAUUACGUUAC | – | -2.37 ± 0.32
CGUUAGCAAUAUUACGAACG | -2.85 ± 0.3 | -2.62 ± 0.38
GUAAAGCAAUAUUACGGGGA | -2.91 ± 0.19 | -2.4 ± 0.21
AUCUAGCAAUAUUACGGUGC | -3.09 ± 0.22 | -1.4 ± 0.21
UACCAGCAAUAUUACGCUAC | -3.17 ± 0.2 | -1.83 ± 0.18
CAGAAGCAAUAUUACGUUAA | -3.62 ± 0.27 | -3.02 ± 0.43
CCGUAGCAAUAUUACGGUAA | -3.17 ± 0.24 | -3.3 ± 0.26
UUGUAGCAAUAUUACGAAAU | -3.24 ± 0.46 | -2.15 ± 0.4
ACUAAGCAAUAUUACGUUCU | -0.391 ± 0.071 | -0.412 ± 0.094

Sequence | self-splicing fitness (ln) (30 °C) | self-splicing fitness (ln) (37 °C)
AUAGAGCAAUAUUACGAUUA | -2.45 ± 0.21 | -0.158 ± 0.17
CGUUAGCAAUAUUACGUGAU | -3.16 ± 0.24 | -2.45 ± 0.2
GUACAGCAAUAUUACGUUGG | -3.39 ± 0.21 | -2.16 ± 0.15
CACAAGCAAUAUUACGCUUG | -3.66 ± 0.18 | -1.77 ± 0.15
GCCCAGCAAUAUUACGAACC | -1.02 ± 0.15 | 0.156 ± 0.15
CGAAAGCAAUAUUACGUGGU | -3.92 ± 0.14 | -2.11 ± 0.13
UUGAAGCAAUAUUACGGAGG | -0.866 ± 0.11 | -0.64 ± 0.14
GGCUAGCAAUAUUACGUAAA | -0.62 ± 0.084 | -0.198 ± 0.1
GAUUAGCAAUAUUACGAAGU | -2.54 ± 0.16 | -0.783 ± 0.12
AGCUAGCAAUAUUACGGAAC | -2.7 ± 0.2 | -2.38 ± 0.24
CGUGAGCAAUAUUACGGCAG | -0.858 ± 0.11 | -0.441 ± 0.14
ACUGAGCAAUAUUACGAUAC | -1.07 ± 0.29 | -1.96 ± 0.33
GAUGAGCAAUAUUACGACCU | -1.4 ± 0.18 | -1.36 ± 0.16
AGCAAGCAAUAUUACGCUAG | -4.08 ± 0.25 | -2.1 ± 0.22
UUCUAGCAAUAUUACGUUGG | -2.65 ± 0.24 | –
AGUCAGCAAUAUUACGUAUC | -1.19 ± 0.076 | -0.186 ± 0.11
ACUUAGCAAUAUUACGCCGA | -2.94 ± 0.21 | -1.35 ± 0.15
CAAGAGCAAUAUUACGUCGA | -3.3 ± 0.21 | -2.2 ± 0.24
CUCCAGCAAUAUUACGGAGC | -1.83 ± 0.12 | -2.69 ± 0.2
ACAAAGCAAUAUUACGGUCU | -0.435 ± 0.056 | 0.237 ± 0.079
CUGCAGCAAUAUUACGGGAA | -4.02 ± 0.29 | -2.53 ± 0.17
GAAGAGCAAUAUUACGUGUU | -4.18 ± 0.23 | -2.12 ± 0.18
GAACAGCAAUAUUACGAGGC | -3.07 ± 0.18 | -2.03 ± 0.14
CGUAAGCAAUAUUACGUUCA | -1.64 ± 0.14 | -0.74 ± 0.13
ACAAAGCAAUAUUACGAUUU | -0.651 ± 0.066 | -0.399 ± 0.078
CAGCAGCAAUAUUACGUGUA | -2.97 ± 0.078 | -1.65 ± 0.072

Sequence | self-splicing fitness (ln) (30 °C) | self-splicing fitness (ln) (37 °C)
GCGGAGCAAUAUUACGACAA | -1.13 ± 0.23 | -1.7 ± 0.29
GUGUAGCAAUAUUACGUUGA | -1.73 ± 0.14 | -3.07 ± 0.36
UUAAAGCAAUAUUACGCUCG | 0.194 ± 0.12 | 0.654 ± 0.15
ACCGAGCAAUAUUACGGCAC | -2.07 ± 0.14 | -1.76 ± 0.27
AAUAAGCAAUAUUACGGUGU | -2.59 ± 0.12 | -0.711 ± 0.12
CUGCAGCAAUAUUACGAUCG | -0.0275 ± 0.073 | 0.558 ± 0.1
AGCGAGCAAUAUUACGGUGG | -2.67 ± 0.15 | -2.11 ± 0.25
AGACAGCAAUAUUACGUAAA | -2.15 ± 0.072 | -1.05 ± 0.08
UUGAAGCAAUAUUACGCCGG | -0.0467 ± 0.11 | 0.0153 ± 0.15
CUUAAGCAAUAUUACGCGCU | -3.35 ± 0.22 | -2.5 ± 0.27
CUUUAGCAAUAUUACGCCAA | -2.63 ± 0.37 | –
AGUCAGCAAUAUUACGGUAU | -0.592 ± 0.05 | -0.99 ± 0.063
GCUAAGCAAUAUUACGCGAA | -2.87 ± 0.13 | -1.1 ± 0.14
GGUUAGCAAUAUUACGCCUU | -1.48 ± 0.11 | -0.406 ± 0.14
UGGGAGCAAUAUUACGUAAC | -1.63 ± 0.41 | –
CUCAAGCAAUAUUACGGGGU | -3.4 ± 0.15 | -3.44 ± 0.19
CUGUAGCAAUAUUACGAUGG | -2.74 ± 0.18 | -1.81 ± 0.19
GAAUAGCAAUAUUACGCACU | -0.269 ± 0.089 | 0.18 ± 0.11
GAAAAGCAAUAUUACGCGUG | -1.42 ± 0.065 | -0.104 ± 0.078
UCCGAGCAAUAUUACGUAAC | – | -0.912 ± 0.35
UGUUAGCAAUAUUACGAGUA | -1.32 ± 0.13 | -0.347 ± 0.13
ACGCAGCAAUAUUACGUAAA | -2.06 ± 0.12 | -1.95 ± 0.2
UGAAAGCAAUAUUACGUACU | -0.121 ± 0.089 | -0.476 ± 0.091
CAGGAGCAAUAUUACGUGUU | -3.24 ± 0.17 | -2.55 ± 0.27
GAAAAGCAAUAUUACGCUUG | -1.72 ± 0.13 | -0.918 ± 0.14
CGCUAGCAAUAUUACGGCUC | -1.15 ± 0.16 | -0.2 ± 0.19
